This series in a line: yeast display, Sf9 membrane polyspecificity reagent, FACS + sequencing; frameworks hold sequencing errors. The gist of the method:
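In a synthetic yeast display library (Saccharomyces cerevisiae BJ5465), nanobody expression was induced with galactose for 36–48 hours. FACS gates were set low and high (top ~1%) using anti-HA fluorescence for expression and streptavidin fluorescence for binding of the Sf9 membrane reagent. Each polyreactivity label is drawn from the gate of origin.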
In the case of “QVQLVESGGGLVQAGGSLRLSCAASGSIFRRNAMGWYRQAPGKERELVAGISGGGSTYYADSVKGRFTISRDNAKNTVYLQMNSLKPEDTAVYYCSTDKHYRWAGFDYWGQGTQVTVSS”, the “polyreactivity (PSR sort gate)” value was “low polyreactivity”.

Regarding “QVQLVESGGGLVQAGGSLRLSCAASGRTFSYYGMGWYRKAPGKERELVAGISIRGSHTYYADSVKGRFTISRDNAKNTVFLQMNSLKPEDTGVYYCAARWIGLYSYEYWGQGSQVTVSS”, the “polyreactivity (PSR sort gate)” value was “high polyreactivity”.

For “QVQLVESGGGLVQAGGSLRLSCAASGITFPFNAMGWYRQAPGKERELDAAISSTGSTNYADSVKGRFTISRDNAKNTVYLQMNSLKPEDTAVYYCNKRSNYRRGDGRRHLYWGQGTQVTVSS”, the “polyreactivity (PSR sort gate)” value is on record as “low polyreactivity”.

On to “QVQLVESGGGLVQAGGSLRLSCAASGYTFNYYAMGWSRQAPGKEREFVASTYADSVKGRFTISRDNAKNTVYLQMNSLKPEDTAVYYCAAEGSYPAYDYWGQGTQVTVSS”, for which the “polyreactivity (PSR sort gate)” value is “low polyreactivity”.

Take “QVQLVESGGGLVQAGGSLRLSCAASGRIFYGNDRGWYRQAPGKERELVAAITWSGGSTYYADSVKGRFTISRDNAKNTVYLQMNSLKPEDTAVYYCAAVPRRGWDIRRYDSWGQGTQVTVSS”: the “polyreactivity (PSR sort gate)” value is “high polyreactivity”.

With “QVQLVESGGGLVQAGGSLRLSCAASGFTFRGNAMGWYRQAPGKERELVAAITSSDDSTYYADSVKGRFTISRDYAKNTVYLQMNSLKPEDTAVYYCAAEGVHYAGDYGTGYDYWGQGTQVTVSS”, the “polyreactivity (PSR sort gate)” value was “low polyreactivity”.

Take “QVQLVESGGGLVQAGGSLRLSCAASGSTFGSYAMGWYRQAPGKERELVAAITQIGGSTYYADSVKGRFTISRDNAKNTVYLQMNSLKPEDTEVYYCAVTAGRGGYPQGGVTRGYWGQGTQVTVSS”: the “polyreactivity (PSR sort gate)” value was “high polyreactivity”.

Consider “QVQLVESGGGLVQAGGSLRLSCAASGRTFGAYTMGWYRQAPGKERELFAAINWSGGDTYYADSVKGRFTISRDNAKNTVYLQMNSLKPEDTAVYYCNADFGFGYVSLLYEYWGQGTQVTVSS”, for which the “polyreactivity (PSR sort gate)” value is “low polyreactivity”.

For “QVQLVESGGVLVQAGGSLRLSCAASGSTFSYYAMGWYRQAPGKERELVAAIDSSGGRTYYADSVKGRFTISRDNAKNTVYLHMNSLKPEDTAVYYCAADASYTEGMDYWGQGTQVTVSS”, the “polyreactivity (PSR sort gate)” value was “high polyreactivity”.

Take “QVQLVESGGGLVQAGGSLRFSCAASGSTFIGYAMGWYRQAPGKERELVAGISRGGRTNYADSVKGRFTISRDNAKHTVYLQMNSLKPEDTAVYYCAAGYRRYYEGFWVIQMNYWGQGTQVTVSS”: the “polyreactivity (PSR sort gate)” value was “high polyreactivity”.

With “QVQIVDSGGGLVQAGGSLRLTCAASAITFSTNALGWNRQAPGKERELVAAITSVTSTYYADSVKGRFTISRDNAKNTVYLLMKSLKTEYTAVYYWAARLSRWPYFYEYNYWGQGTEVTVSS”, the “polyreactivity (PSR sort gate)” value is on record as “low polyreactivity”.

As for “QVQLVESAGGLVQAGGSLRLSCAASGGTFSTYAIGWYRQAPGKEREFVAAITRSGTSTYYADSVKGRFTISRDNAKNTVYLQMNSLKPEDTAVYYCAAGVYSFRYDYWGQGTQVTVSS”, the “polyreactivity (PSR sort gate)” value was “low polyreactivity”.

For “QVQLVESGGGLVQAGGSLRLSCAASGRIFGPYTMGWYRQAPGKERELVAGITKSGSSTYYADSVKGRFTISRDNAKNTVYLQMNSLKPEDTAVYYCAADVYQVRGYYWGQGTQVTLSS”, the “polyreactivity (PSR sort gate)” value was “high polyreactivity”.

Turning to “QVQLVESGGGLVQAGGSLRLSCAASGSTFAQNTMGSYRQAPGKERELVATISDGGGSTYYADSVKGRFTISRDNAKNTVYLQMNSLKPEDTAVYYCNTDRFWPSYYWGQGTQVTVSS”, the “polyreactivity (PSR sort gate)” value is reported as “low polyreactivity”.

As for “QVQLVESGGGLVQAGGSLGLSCAASGRTFTPYAMGWYRQAPGIERELVAAIDTSGGSTYADSVKGRFTMSRDNAKNTVYLQMNSLKQEDTAVYYCNVDSAWYPYETEDDWGQGTQVTVSS”, the “polyreactivity (PSR sort gate)” value is “low polyreactivity”.

On to “QVQLVESGGGLVQAGGSLRLICAASGFIFVDNAMGWYRQAPGKERELVAAITSGASTYYADSVKGRFTISRDNAKITVYLQMNSLKPEDTAVYYCAADYLYYYTWYNYWGQGTQVTVSS”, for which the “polyreactivity (PSR sort gate)” value is “low polyreactivity”.

“QVQRVESGGGLVQAGGSLLLSCAPSGSIFSDNSMGWYRQAPGKERELVAAITSGGDTKYADSVKGRFTISRDNAKNTVYLQMNSLKPEDTAFYYCAAGIRYQASFDSWGQGTQVTVSS”: the “polyreactivity (PSR sort gate)” value is listed as “low polyreactivity”.

Take “QVQLVESGGGLVQAGGSLRLSCAASGRTFPWKVMGWYRQPPGKERELVAAITRSGGSTYYADSVKGRFTISRDNAKNTVYLQMNSLKQEDTAVYYCAKRGYTSSRRWIYDYWGQGTQVTVSS”: the “polyreactivity (PSR sort gate)” value is reported as “high polyreactivity”.

Regarding “QVQLVESGGGLVQAGGSLRLSCAASGSTFVVYDMGWDRQAPGKERELVAAITWSGGSTYYADSVKGRFTISRDNAKNTVYLQINSLKPEDTAVYYCNKVTWHQGHDYLGQGTQVTVSS”, the “polyreactivity (PSR sort gate)” value is reported as “low polyreactivity”.

As for “QVQLVESGGGLVQAGGSLRLSCAASGRIYRYAMGWYIQAPGKERELVASISYSGGSTYYADSVKGRFTISRDNAKNTVYLQMNSLKPEDTAVYYCAARTRHVHYGYWGQGTQVTVSS”, the “polyreactivity (PSR sort gate)” value is reported as “high polyreactivity”.

Consider “QVQLVESGGGLVQAGGSLRLSCAASGSTFGYYAMGWYRQAPGKERELVAAINSGDSTSYAESVKGRFTISRDNAKNTVYLQMNSLKPEDTAVYYCAVRPRRHQYGYWGQGTQVTVSS”, for which the “polyreactivity (PSR sort gate)” value is given as “low polyreactivity”.

For the sequence “QVQLVESGGGLVQAGGSLRLSCAASGFTFSWYALGWYRQAPGKESELVAAINWSGTSTYYADSVKGRFTISRDNAKNTVYLQMNSLKPEDTAVYYCNVVVYRWSPVSKLDYWGQGTQVTVSS”, the “polyreactivity (PSR sort gate)” value is given as “high polyreactivity”.

As to “QVQLVESGGGLVQAGGSLRLSCAASGSTFDRYAMGWYRQAPRKERELVAANSWSAGRTDYADSVKGRFTISRDNAKNTVYLQMNSLKPEDTAVYYCAADYWYRTFYGYFGYDYWGQGTQVTVSS”, the “polyreactivity (PSR sort gate)” value is “low polyreactivity”.

On to “QVQLVESGGGLDQAGGSLRLSCAASGFIFFRYAMGWYRQAPGKERELVAGNNGSDGSTYYADSVKGRFTISRDNAKNTVYLQMNSLKPEDTAVYYCAAEGGFSPQPYNLYYATPREDYWGQGTQVTVSS”, for which the “polyreactivity (PSR sort gate)” value is recorded as “low polyreactivity”.

Consider “QVQLVESGGGLVHAGGSLRISCAASGRTFLPYTMGGYRQAHGSERELVADITTSDGSTYYADSVKGRFTISRDYAKNTVYLQMNSLKPEDTAVFYCAAESPWFWAVFDYWGQGTQVTVSS”, for which the “polyreactivity (PSR sort gate)” value is given as “high polyreactivity”.

For the sequence “QDQLVDSGGGLVQAGGSLSLICAATGLIFNRNAMGWYRQAPGKERELVASISSGGRTNYADSVKGRFTISRDNAKNTVYLQMNSLKPEDTAVYYCAAKSPRILLDYWGQGTQVTVSS”, the “polyreactivity (PSR sort gate)” value is on record as “low polyreactivity”.

For “QVQLQESGGGLVQAGGSLRLSCAASGTIFWLWAMGWYCQAPGKERELVASISSGGTTYHADSVKGRFTISRDNAKNTVYLQMNSLKPEDTAVYYSAAFYVATSKLGFWGQGSQVTVSS”, the “polyreactivity (PSR sort gate)” value was “low polyreactivity”.

For the sequence “QVQLVESGGGLVQAGGSLRLSCAMGWYRPAPGKERELVAGITGGGRTHYADSVKGRFTISRDNAKNTVYLQMNSLKPEDTAVYYCAAGGVRSQVPWSWYYYWGQGTQVTVSS”, the “polyreactivity (PSR sort gate)” value is “low polyreactivity”.

Take “QVQLVESGGGLVQAGGSLRLSCAASGSTFTYYAMGWYRQAPGKERELVAAITWSGVSTYYADSVKGRFTISRDNAKNTVYLQMNSLKPEDTAVYYCANGYSYGWWGGFGYWGQGTQVTVSS”: the “polyreactivity (PSR sort gate)” value is reported as “high polyreactivity”.

Take “QVQLVESGGGLVQAGGSLRLSCAASGRIFSYYAMGWYRQAPGKERELVAAISWNGGSTYYADSVKGRFTISRDNAKNTVYLQMKSLKPEDTAVYYCAAESYFNNWRNRYDYCGQGTQVTVSS”: the “polyreactivity (PSR sort gate)” value is reported as “high polyreactivity”.

Consider “QVQLVESGGGLVQAGGSLRLSCAASGFIFLAYTMGWYRQAPGKERELVAAISASGGRTYYADSVKGRFTISRDNAKNTVYLQMNSLKPEDTAVYYCAAAGGRFIRYGYWGQGTQVTVSS”, for which the “polyreactivity (PSR sort gate)” value is listed as “high polyreactivity”.

On to “QVQLVESGGGLVQAGGSLRLSCAASGFTFYKYAMGCYRQPPGKERELVAAITGRGGSTYYADSVKGRFTISRDNAKNTVYLQMNILKPEDTAVYYCAARTPSYEMDYWGQGTQVTVSS”, for which the “polyreactivity (PSR sort gate)” value is listed as “high polyreactivity”.

Take “QVQLVESGGGLVQAGGSLRLSCAASGSIFYPNAMGWYRQAPGKERELVAANSIGGGRTYYADSVKGRFTISRDNAKNTVYLQMNSLKPEDTAVYYCAASFYSYTSTWAYRFYYWGQGTQVTVSS”: the “polyreactivity (PSR sort gate)” value was “high polyreactivity”.

As to “QVQLVESGGGLVQAGGSLRLSCAASGITFSTYAMGWYIQAPGKERELVAAITKSGGSTYYADSVKGRFTISRDNAKNTVYLQMNRLKPEDTAVYYCAARFPHRHYLLYTYDYWGQGTQVTVSS”, the “polyreactivity (PSR sort gate)” value is recorded as “low polyreactivity”.

For “QVQLVESGGGLVQAGGSLRLSCAASGSTLGYYTMGWYRQAPGKERELVAAISGSGVTTSYADSVKGRFTISRDNAKNTVYLQMNSLKPEDTAVYYCARRYRVGTTGGDYWGQGTQVTVSS”, the “polyreactivity (PSR sort gate)” value is given as “high polyreactivity”.

On to “QVQLEESGGGLLKEGGSLRLSCAASGRLFYGYTIGRSRQAPGKERELVAAISRNGGSTYYADSVKGRFTISRDNAKNTVYFHMNSLKTEDSAVYYCNAVFSRGYVIKPYDYWGQGTQVTVSS”, for which the “polyreactivity (PSR sort gate)” value is “high polyreactivity”.

For the sequence “QVQLVESGGGLVQAGGSLRLSCAASGRTFYSYAMGWYRQAPGKERELVAAISSSSGRTYYADSVKGRFTISRDNAKNTVYLQMNSLKPEDTGVYYCNRAGGYRTTFYSWGQGTQVTVSS”, the “polyreactivity (PSR sort gate)” value is given as “high polyreactivity”.

For the sequence “QVQLEESVGGLVQAGGSLRLSCAASGSILLWNAMGSYREAPGKERELVAAISSSGTSTYYADSVKGLFTISRDNAKNTVYLQMNSEKPEDNAVYYCAADQSEFYAIYYYWGQGTQVTVSS”, the “polyreactivity (PSR sort gate)” value is “low polyreactivity”.

As for “QVQLVESGGGLVQAGGSLRLSCAASGFTFGVYAMGWYRQAPGKERELVAAISTTVGSTYYADSVKGRFTISRDNAKNTVYLQMNSLKPEDSAVYYCAAEYTGYINYYIYEYWGQGTQVTVSS”, the “polyreactivity (PSR sort gate)” value was “low polyreactivity”.

Take “QVQLVESGGGLVQAGGSLRLSCAASGSTFSTNAMGWYRQAPGKERELVASITRSGGSTYYADSVKGRFTISRDNAKNTVYLQMNSLKPEDTAVYYCNADGYYDYDYGYWGQGTQVTVSS”: the “polyreactivity (PSR sort gate)” value was “low polyreactivity”.

Turning to “QVQLVESGGGLVQAGGSLRLSCAASGSTIRGYAMGWYRQAPGKEREFVAAITVNGGNTYYADSVKGRFTISRDNAKNTVYLQMNSLKPEDTAVYYCNVPVTVGKDSITEHYYWGLGTQVTVSS”, the “polyreactivity (PSR sort gate)” value was “low polyreactivity”.
